In the supplement of paper PMC9233669:
Variants at the floor of the assay were thinned out.

Assays:
biotinyl-Met-oxazolone = assay: self-aminoacylation, catalytic enhancement (BMO) (fold over background); higher = more active; k-Seq, kA / k0A0; sequences stand for … in GGGAAUGGAUCCACAUCUACGAAUUC…UUCACUGCAGACUUGACGAAGCUG
Method in brief: (§1)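 Catalytic enhancement equals the median kA over the uncatalyzed rate, the latter read from the low-activity peak of a bimodal Gaussian fit. Values of kA came from fitting each sequence's fraction reacted to a pseudo-first-order model, with 1000 bootstraps. Reacted RNA was captured with streptavidin and quantified by triplicate qPCR and Illumina sequencing after 90 minutes at room temperature with 2–1250 μM biotinyl-aminoacyl-oxazolone and 0.43 μM mutagenized RNA pools bearing a 21-nt variable region.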

biotinyl-Val-oxazolone = assay: self-aminoacylation, catalytic enhancement (BVO) (fold over background); higher = more active; k-Seq, kA / k0A0; sequences stand for … in GGGAAUGGAUCCACAUCUACGAAUUC…UUCACUGCAGACUUGACGAAGCUG
Method in brief: as §1

biotinyl-Phe-oxazolone = assay: self-aminoacylation, catalytic enhancement (BFO) (fold over background); higher = more active; k-Seq, kA / k0A0; sequences stand for … in GGGAAUGGAUCCACAUCUACGAAUUC…UUCACUGCAGACUUGACGAAGCUG
Method in brief: as §1

biotinyl-Trp-oxazolone = assay: self-aminoacylation, catalytic enhancement (BWO) (fold over background); higher = more active; k-Seq, kA / k0A0; sequences stand for … in GGGAAUGGAUCCACAUCUACGAAUUC…UUCACUGCAGACUUGACGAAGCUG
Method in brief: as §1

biotinyl-Ile-oxazolone = assay: self-aminoacylation, catalytic enhancement (BIO) (fold over background); higher = more active; k-Seq, kA / k0A0; sequences stand for … in GGGAAUGGAUCCACAUCUACGAAUUC…UUCACUGCAGACUUGACGAAGCUG
Method in brief: as §1

biotinyl-Leu-oxazolone = assay: self-aminoacylation, catalytic enhancement (BLO) (fold over background); higher = more active; k-Seq, kA / k0A0; sequences stand for … in GGGAAUGGAUCCACAUCUACGAAUUC…UUCACUGCAGACUUGACGAAGCUG
Method in brief: as §1

Work on “AUUCACCUAGGGCUUCGGGUG [Fam2.2 aminoacylation ribozyme variant]” yielded a self-aminoacylation (biotinyl-Met-oxazolone) of 3.39, a self-aminoacylation (biotinyl-Val-oxazolone) of 2.92 and a self-aminoacylation (biotinyl-Phe-oxazolone) of 15.1. The self-aminoacylation (biotinyl-Trp-oxazolone) was 3.63, the self-aminoacylation (biotinyl-Ile-oxazolone) was 2.69 and the self-aminoacylation (biotinyl-Leu-oxazolone) was 2.82.

“AUUCACCUAGGUAAUCGGGCG [Fam2.2 aminoacylation ribozyme variant]” gave a self-aminoacylation (biotinyl-Met-oxazolone) of 1.66, a self-aminoacylation (biotinyl-Val-oxazolone) of 1.65 and a self-aminoacylation (biotinyl-Phe-oxazolone) of 7.69. The self-aminoacylation (biotinyl-Trp-oxazolone) was 2.33, the self-aminoacylation (biotinyl-Ile-oxazolone) was 1.63 and the self-aminoacylation (biotinyl-Leu-oxazolone) was 2.62.

Work on “AUUCACCUAGGUAAUCGUGUG [Fam2.2 aminoacylation ribozyme variant]” yielded a self-aminoacylation (biotinyl-Met-oxazolone) of 0.915, a self-aminoacylation (biotinyl-Val-oxazolone) of 0.838 and a self-aminoacylation (biotinyl-Phe-oxazolone) of 3.38. The self-aminoacylation (biotinyl-Trp-oxazolone) was 0.758, the self-aminoacylation (biotinyl-Ile-oxazolone) was 0.879 and the self-aminoacylation (biotinyl-Leu-oxazolone) was 1.14.

For “AUUCACCUAGGUAGUCGGGUG [Fam2.2 aminoacylation ribozyme variant]”, the self-aminoacylation (biotinyl-Met-oxazolone) was 3.28, the self-aminoacylation (biotinyl-Val-oxazolone) was 2.35 and the self-aminoacylation (biotinyl-Phe-oxazolone) was 15.8. It also gave a self-aminoacylation (biotinyl-Trp-oxazolone) of 3.31, a self-aminoacylation (biotinyl-Ile-oxazolone) of 2.02 and a self-aminoacylation (biotinyl-Leu-oxazolone) of 3.89.

“AUUCACCUAGGUCAACCGGUG [Fam2.2 aminoacylation ribozyme variant]” showed a self-aminoacylation (biotinyl-Met-oxazolone) of 4.9, a self-aminoacylation (biotinyl-Val-oxazolone) of 2.72 and a self-aminoacylation (biotinyl-Phe-oxazolone) of 26.6. It also gave a self-aminoacylation (biotinyl-Trp-oxazolone) of 4.14, a self-aminoacylation (biotinyl-Ile-oxazolone) of 2.99 and a self-aminoacylation (biotinyl-Leu-oxazolone) of 6.28.

“AUUCACCUAGGUCAACGGCUG [Fam2.2 aminoacylation ribozyme variant]” showed a self-aminoacylation (biotinyl-Met-oxazolone) of 1.07, a self-aminoacylation (biotinyl-Val-oxazolone) of 1.09 and a self-aminoacylation (biotinyl-Phe-oxazolone) of 0.492. The self-aminoacylation (biotinyl-Trp-oxazolone) was 0.872, the self-aminoacylation (biotinyl-Ile-oxazolone) was 1.12 and the self-aminoacylation (biotinyl-Leu-oxazolone) was 1.17.

For “AUUCACCUAGGUCAACGGGUG [Fam2.2 aminoacylation ribozyme variant]”, the self-aminoacylation (biotinyl-Met-oxazolone) was 4.01, the self-aminoacylation (biotinyl-Val-oxazolone) was 2.48 and the self-aminoacylation (biotinyl-Phe-oxazolone) was 27.5. The self-aminoacylation (biotinyl-Trp-oxazolone) was 3.49, the self-aminoacylation (biotinyl-Ile-oxazolone) was 2.5 and the self-aminoacylation (biotinyl-Leu-oxazolone) was 5.19.

“AUUCACCUAGGUCACCGGCUG [Fam2.2 aminoacylation ribozyme variant]” was tested, and the self-aminoacylation (biotinyl-Met-oxazolone) was 2.27, the self-aminoacylation (biotinyl-Val-oxazolone) was 2.36 and the self-aminoacylation (biotinyl-Phe-oxazolone) was 12.9. For the same sequence, the self-aminoacylation (biotinyl-Trp-oxazolone) was 2.12, the self-aminoacylation (biotinyl-Ile-oxazolone) was 2.51 and the self-aminoacylation (biotinyl-Leu-oxazolone) was 3.16.

“AUUCACCUAGGUCACCGGGAG [Fam2.2 aminoacylation ribozyme variant]” was tested, and the self-aminoacylation (biotinyl-Met-oxazolone) was 2.05, the self-aminoacylation (biotinyl-Val-oxazolone) was 1.43 and the self-aminoacylation (biotinyl-Phe-oxazolone) was 5.9. For the same sequence, the self-aminoacylation (biotinyl-Trp-oxazolone) was 1.81, the self-aminoacylation (biotinyl-Ile-oxazolone) was 1.49 and the self-aminoacylation (biotinyl-Leu-oxazolone) was 1.77.

For “AUUCACCUAGGUCACCGGGUA [Fam2.2 aminoacylation ribozyme variant]”, the self-aminoacylation (biotinyl-Met-oxazolone) was 2.79, the self-aminoacylation (biotinyl-Val-oxazolone) was 2.46 and the self-aminoacylation (biotinyl-Phe-oxazolone) was 14. The self-aminoacylation (biotinyl-Trp-oxazolone) was 3.11, the self-aminoacylation (biotinyl-Ile-oxazolone) was 2.6 and the self-aminoacylation (biotinyl-Leu-oxazolone) was 3.2.

“AUUCACCUAGGUCACCGGGUG [Fam2.2 aminoacylation ribozyme variant]” showed a self-aminoacylation (biotinyl-Met-oxazolone) of 4.95, a self-aminoacylation (biotinyl-Val-oxazolone) of 3.55 and a self-aminoacylation (biotinyl-Phe-oxazolone) of 32.2. It also gave a self-aminoacylation (biotinyl-Trp-oxazolone) of 4.63, a self-aminoacylation (biotinyl-Ile-oxazolone) of 3.51 and a self-aminoacylation (biotinyl-Leu-oxazolone) of 6.44.

Sequence “AUUCACCUAGGUCACCGGUUG [Fam2.2 aminoacylation ribozyme variant]” has a self-aminoacylation (biotinyl-Met-oxazolone) of 1.62, a self-aminoacylation (biotinyl-Val-oxazolone) of 1.7 and a self-aminoacylation (biotinyl-Phe-oxazolone) of 7.82. The self-aminoacylation (biotinyl-Trp-oxazolone) was 1.29, the self-aminoacylation (biotinyl-Ile-oxazolone) was 1.92 and the self-aminoacylation (biotinyl-Leu-oxazolone) was 1.55.

In the case of “AUUCACCUAGGUCACUGGGUG [Fam2.2 aminoacylation ribozyme variant]”, the self-aminoacylation (biotinyl-Met-oxazolone) is reported as 2.82, the self-aminoacylation (biotinyl-Val-oxazolone) is reported as 1.72 and the self-aminoacylation (biotinyl-Phe-oxazolone) is reported as 19.7. It also gave a self-aminoacylation (biotinyl-Trp-oxazolone) of 2.52, a self-aminoacylation (biotinyl-Ile-oxazolone) of 1.8 and a self-aminoacylation (biotinyl-Leu-oxazolone) of 3.93.

In the case of “AUUCACCUAGGUCAGCGGGUU [Fam2.2 aminoacylation ribozyme variant]”, the self-aminoacylation (biotinyl-Met-oxazolone) is reported as 1.65, the self-aminoacylation (biotinyl-Val-oxazolone) is reported as 2.15 and the self-aminoacylation (biotinyl-Phe-oxazolone) is reported as 4.6. The self-aminoacylation (biotinyl-Trp-oxazolone) was 1.94, the self-aminoacylation (biotinyl-Ile-oxazolone) was 2.56 and the self-aminoacylation (biotinyl-Leu-oxazolone) was 2.42.

“AUUCACCUAGGUCAGCUGGUG [Fam2.2 aminoacylation ribozyme variant]” showed a self-aminoacylation (biotinyl-Met-oxazolone) of 2.56, a self-aminoacylation (biotinyl-Val-oxazolone) of 1.64 and a self-aminoacylation (biotinyl-Phe-oxazolone) of 15.1. The self-aminoacylation (biotinyl-Trp-oxazolone) was 1.7, the self-aminoacylation (biotinyl-Ile-oxazolone) was 1.92 and the self-aminoacylation (biotinyl-Leu-oxazolone) was 2.7.

With “AUUCACCUAGGUCAGUGGGUG [Fam2.2 aminoacylation ribozyme variant]” the self-aminoacylation (biotinyl-Met-oxazolone) was 1, the self-aminoacylation (biotinyl-Val-oxazolone) was 0.999 and the self-aminoacylation (biotinyl-Phe-oxazolone) was 1.08. It also gave a self-aminoacylation (biotinyl-Trp-oxazolone) of 0.885, a self-aminoacylation (biotinyl-Ile-oxazolone) of 0.904 and a self-aminoacylation (biotinyl-Leu-oxazolone) of 1.26.

With “AUUCACCUAGGUCAUAGGGUU [Fam2.2 aminoacylation ribozyme variant]” the self-aminoacylation (biotinyl-Met-oxazolone) was 0.827, the self-aminoacylation (biotinyl-Val-oxazolone) was 0.804 and the self-aminoacylation (biotinyl-Phe-oxazolone) was 0.392. For the same sequence, the self-aminoacylation (biotinyl-Trp-oxazolone) was 0.959, the self-aminoacylation (biotinyl-Ile-oxazolone) was 0.918 and the self-aminoacylation (biotinyl-Leu-oxazolone) was 0.676.

In the case of “AUUCACCUAGGUCAUAUGGUG [Fam2.2 aminoacylation ribozyme variant]”, the self-aminoacylation (biotinyl-Met-oxazolone) is reported as 3.44, the self-aminoacylation (biotinyl-Val-oxazolone) is reported as 2.25 and the self-aminoacylation (biotinyl-Phe-oxazolone) is reported as 20.3. For the same sequence, the self-aminoacylation (biotinyl-Trp-oxazolone) was 3.68, the self-aminoacylation (biotinyl-Ile-oxazolone) was 2.25 and the self-aminoacylation (biotinyl-Leu-oxazolone) was 4.8.

“AUUCACCUAGGUCAUCACGUG [Fam2.2 aminoacylation ribozyme variant]” showed a self-aminoacylation (biotinyl-Met-oxazolone) of 3.99, a self-aminoacylation (biotinyl-Val-oxazolone) of 2.62 and a self-aminoacylation (biotinyl-Phe-oxazolone) of 23.1. For the same sequence, the self-aminoacylation (biotinyl-Trp-oxazolone) was 3.56, the self-aminoacylation (biotinyl-Ile-oxazolone) was 2.03 and the self-aminoacylation (biotinyl-Leu-oxazolone) was 4.54.

Sequence “AUUCACCUAGGUCAUCCGGGG [Fam2.2 aminoacylation ribozyme variant]” has a self-aminoacylation (biotinyl-Met-oxazolone) of 3.21, a self-aminoacylation (biotinyl-Val-oxazolone) of 2.84 and a self-aminoacylation (biotinyl-Phe-oxazolone) of 7.28. It also gave a self-aminoacylation (biotinyl-Trp-oxazolone) of 3.23, a self-aminoacylation (biotinyl-Ile-oxazolone) of 3.2 and a self-aminoacylation (biotinyl-Leu-oxazolone) of 4.27.

In the case of “AUUCACCUAGGUCAUCCGUUG [Fam2.2 aminoacylation ribozyme variant]”, the self-aminoacylation (biotinyl-Met-oxazolone) is reported as 0.997, the self-aminoacylation (biotinyl-Val-oxazolone) is reported as 1.19 and the self-aminoacylation (biotinyl-Phe-oxazolone) is reported as 4.37. It also gave a self-aminoacylation (biotinyl-Trp-oxazolone) of 0.699, a self-aminoacylation (biotinyl-Ile-oxazolone) of 1.31 and a self-aminoacylation (biotinyl-Leu-oxazolone) of 1.16.

“AUUCACCUAGGUCAUCCUGUG [Fam2.2 aminoacylation ribozyme variant]” showed a self-aminoacylation (biotinyl-Met-oxazolone) of 0.923, a self-aminoacylation (biotinyl-Val-oxazolone) of 0.885 and a self-aminoacylation (biotinyl-Phe-oxazolone) of 1.42. It also gave a self-aminoacylation (biotinyl-Trp-oxazolone) of 0.316, a self-aminoacylation (biotinyl-Ile-oxazolone) of 1.13 and a self-aminoacylation (biotinyl-Leu-oxazolone) of 1.04.

“AUUCACCUAGGUCAUCGACUG [Fam2.2 aminoacylation ribozyme variant]” was tested, and the self-aminoacylation (biotinyl-Met-oxazolone) was 0.561, the self-aminoacylation (biotinyl-Val-oxazolone) was 0.6 and the self-aminoacylation (biotinyl-Phe-oxazolone) was 0.459. It also gave a self-aminoacylation (biotinyl-Trp-oxazolone) of 0.318, a self-aminoacylation (biotinyl-Ile-oxazolone) of 0.564 and a self-aminoacylation (biotinyl-Leu-oxazolone) of 0.553.
